Target: the molecule itself
Assay: size exclusion chromatography, Superdex 75, non-denaturing; self-association (dimerization)

B1: Mocr protein (monomeric Ocr, F53R and V77D) as produced from the pMCSG7 vector (pMocr) (other)
chain: MHHHHHHSSGVDLAMSNMTYNNVFDHAYEMLKENIRYDDIRDTDDLHDAIHMAADNAVPHYYADIRSVMASEGIDLEFEDSGLMPDTKDDIRILQARIYEQLTIDLWEDAEDLLNEYLEEVEEYEEDEEGTENLYFQSNICSG
notes: […]; The predicted molecular weight is 16.7 kDa; also called synthetic Mocr
binding result: no binding

Reference: US20110165624A1 (REGENTS OF THEUNIVERSITY OF MICHIGAN, published 2011)
